What is called Km is the substrate concentration at which the rate is half of its maximum.

The record followed here is paper PMC6317530.

Substrate in the data set: O=C(O)c1cc(=O)[nH]c(=O)n1[C@@H]1O[C@H](COP(=O)(O)O)[C@@H](O)[C@H]1O
Kind of data set: purified protein. The following applies: pH 7.1 (10 mM MOPS), 25 °C, I = 0.105 (NaCl).

B1: ScOMPDC (yeast orotidine 5′-monophosphate decarboxylase) (Saccharomyces cerevisiae S288C; A160S/C155S/N267D/Q215A/S154A/S2H/Y217F) (protein)
chain: MHKATYKERAATHPSPVAAKLFNIMHEKQTNLCASLDVRTTKELLELVEALGPKICLLKTHVDILTDFSMEGTVKPLKALSAKYNFLLFEDRKFADIGNTVKLQYSAGVYRIAEWADITNAHGVVGPGIVSGLKQAAEEVTKEPRGLLMLAELASKGSLSTGEYTKGTVDIAKSDKDFVIGFIAQRDMGGRDEGYDWLIMTPGVGLDDKGDALGAQFRTVDDVVSTGSDIIIVGRGLFAKGRDAKVEGERYRKAGWEAYLRRCGQQD
In the case of B1, the Km was 1.5 ± 0.05 mM.
